One molecule from patent US20120270801A1 (Affibody, published 2012) can be followed below.

For the assay, the target named is T1, recombinant human HER3/Fc chimera (R&D Systems, #348-RB-050) (human, UniProt P21860 20-643).
T1 construct: Bought reagent; Biotinylated for flow cytometry, unlabelled for dot blot, ELISA and SPR; also called biotinylated HER3-Fc; not shown: human IgG Fc-region
As to the kind of experiment: SPR, 2.5 nM HER3-Fc alone injected over immobilised heregulin. On the technique in general: In SPR one partner is held on a chip, and binding of the other changes the refractive index at the surface.

B1: heregulin (HRG1-β1, EGF-like domain, R&D Systems) (ligand, human, UniProt Q02297-6 177-241, looked up)
chain: SHLVKCAEKEKTFCVNGGECFMVKDLSNPSRYLCKCPNEFTGDRCQNYVMASFYKHLGIEFMEAE
notes: domain: EGF-like domain; also called human heregulin; HRG1-β, 396-HB
Regarding B1, the binding result is reported as “binds”.
